Measurements taken from patent US20190248902A1 (published 2019).

B1: 148E10 (antibody, V domains shown)
VH: QVQLVESGGGVVQPGRSLRLSCAASGFTFSSYGMHWVRQAPGKGLEWVAVIWFDGSNKYYVDSVKDRFTISRDNSKNTLYLQMNSLRAEDTAVYYCARDRVEGSGTPYYYYGMDVWGQGTTVTVSS
VL: SYELTQPPSVSVSPGQTASITCSGDKLGNKYVCWYQQRPGHAAVLIIYQDSKRPSGIPERFSGSNSGNTATLTISGTQAMDEADYFCQAWDRNTYVVFGGGTKLTVL
notes: hybridoma mAb
B2: 64E2 (antibody, V domains shown)
VH: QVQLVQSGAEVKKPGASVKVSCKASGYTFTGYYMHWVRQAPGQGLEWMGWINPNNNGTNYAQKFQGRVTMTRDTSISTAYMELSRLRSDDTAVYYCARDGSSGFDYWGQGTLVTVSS
VL: DIQMTQSPSSVSASVGDRVTITCRASQGISRWLAWYQQKPGKAPKLLIYAASSLQSGVPSRFSGSGSGTDFTLTISSLQPEDFATYYCQQANSFPFTFGPGTKVDIK
notes: hybridoma mAb
B3: 51E9 (antibody, V domains shown)
VH: QVQLVQSGAEVKKPGASVKVSCKASRYTFTGYHIHWVRQAPGQGLEWMGWINPNTNGTQYAQKFQGRVTMTRDTSISTAYMELSRLRSDDTAVYYCARDGTSSFDYWGQGTLVTVSS
VL: DIQMTQSPSSVSASVGDRVTITCRASQGISSWLAWYQQKPGKAPKLLIYVASSLQSGVPSRFSGSGSGTDFTLTIRSLQPEDFATYYCQQAKSFPFTFGPGTKVDIK
notes: hybridoma mAb
B4: 53F7 (antibody, V domains shown)
VH: QVQLVQSGAEVKKPGASVKVSCKASGYTFTGYHMHWVRQAPGQGLEWMGWINPNNNGTNYAQKFQGRVTMTRDTSISTAYMELNRLTSDDTAVYYCARDGTSSFDYWGQGTLVTVSS
VL: DIQMSQSPSSVSASVGDRVTITCRASQGISRWLAWYQQKPGKAPNLLIYAASSLQSGVPSRFSGSGSGTDFTLTISSLQPEDFAIYYCQQANSFPFTFGPGTKVDIK
notes: hybridoma mAb
B5: 4H6 (antibody, V domains shown)
VH: QVQLVQSGAEVKKPGASVKVSCKASGYTFTDYYLHWVRQAPGQGLEWMGWIHPNSGGTNYAQKFQGRVTMTRDTSISTAYMGLSSLRSDDTAVYYCARDGTSSFDYWGQGTLVTVSS
VL: DIQMTQSPSSVSASVGDRVTITCRASQGISRWLAWYQQKPGKAPKLLIYGASSLQSGVPSRFSGSGSGTDFTLTISSLQPEDFAIYYCQQANSFPFTFGPGTKVDIK
notes: hybridoma mAb
B6: 52G11 (antibody, V domains shown)
VH: QVQLVQSGAEVKKPGASVKVSCKASGYTFTGYYLHWVRQAPGQGLEWMGWINPNRNGTNYAQKFQGRVTMTRDTSISTAFMELSRLRSDDTAVYYCARDGTSSFDYWGQGTLVTVSS
VL: DIQMTQSPSSVSASVGDRVTITCRASQGISKWLAWYQQKPGKAPKLLLYAASSLQSGVPSRFSASGSGTDFTLTISSLQPEDFATYYCQQANSFPFTFGPGTKVDVK
notes: hybridoma mAb
B7: 55B1 (antibody, V domains shown)
VH: QVQLVQSGAEVKKPGASVKVSCKASGYTFTGYYFHWVRQAPGQGLEWMGWIHPNNNATNYAQKFQGRVTMTRDTSISTAYMELSRLRSDDTAVYYCAKDGRSSFDYWGQGTLVTVSS
VL: DIQMTQSPSSVSASVGDRVTITCRASQVISRWLAWYQQKPGKAPNLLIYAASSLQSGVPSRFSGSGSGTDFTLTISSLQPEDFATYYCQQANSFPFTFGPGTKVDLK
notes: hybridoma mAb
B8: 57A7 (antibody, V domains shown)
VH: QVQLVQSGAEVKKPGASVKVSCKASGYTFTGYHIHWVRQAPGQDLEWMGWINPNNNGTNYAQKFQGRVTMTRDTSISTAYMELSRLRSDDTAVYYCARDGRSGFDYWGQGTLVTVSS
VL: DIQMTQSPSSVSASVGDRVTITCRASQGISRWLAWYQQKPGKAPNLLIYAASNLQSGVPSRFSGSGSGTDFTLTISSLQPEDFATYYCQQANSFPFTFGPGTKVDIK
notes: hybridoma mAb
B9: 50D4 (antibody, V domains shown)
VH: QVQLVQSGAEVKKPGASVKVSCKASGYTFTGYHMHWVRQAPGQGLEWMGWINPNNNATNYAQSFQGRVTLTRDTSISTAYMELSRLRSDDTAVYYCARDGTSSFDFWGQGTLVTVSS
VL: DIQMTQSPSSVSASVGDRLTITCRASQGISRWLAWYQQKPGKAPKVLIYAASTLQSGVPSRFSGSGSGTDFTLTISSLQPEDFATYYCQQANSFPFTFGPGTKVDIR
notes: hybridoma mAb
B10: 70D1 (antibody, V domains shown)
VH: QVQLVQSGAEVKKPGASVKVSCKASGYTFTGYHMHWVRQAPGQGLEWMGWINPNSNATNYAQKFQGRVTMTRDTSISTAYMELSRLRSDDTAVYYCARDSISSWDYWGQGTLVTVSS
VL: DIQMTQSPSSVSASVGDRVTITCRASQGVSRWLAWYQQKPGKAPKLLIYAASSLQSGVPSRFSGSGSGTDFTVTISSLQPEDFATYYCQQANSFPFTFGPGTKVDIK
notes: hybridoma mAb
B11: 56E5 (antibody, V domains shown)
VH: QVQLVQSGAEVKKPGASVKVSCQASGYTFTGYHMHWVRQAPGQGLEWMGWINPNNNATNYAQKFQGRVTMTRDTSISTAYMELRRLRSDDTAVYHCARDGTSSFDYWGQGTLVTVSS
VL: DIQMTQSPSSVSASVGDRVTITCRASQGIRKWLAWYQQKPGKAPKLLIYAASSLQSGVPSRFSGSGSGTDFTLTISSLQPEDFATYYCQQANSFPFTFGPGTKVDIK
notes: hybridoma mAb
B12: 10G6 (antibody, V domains shown)
VH: QVQLVQSGAEVKKPGASVKVSCKASGYTFTAYHMHWVRQAPGQGLEWMGWINPNNNGTNYAQKFQGRVTMTRDTSISTAYMELSRLRSDDTAVYYCGRDVTSSFDYWGQGTLVTVSS
VL: DIQMTQSPSSVSASVGDRVTITCRASQGISKWLAWYQQKPGKAPKILIYAAYSLQSGVPARFSGSGSGTDFTLTIRSLQPEDFATYYCQQANSFPFTFGPGTKVDIK
notes: hybridoma mAb
B13: 49F10 (antibody, V domains shown)
VH: QVQLVQSGAEVKKPGASVKVSCKASGYTFTGYHMHWVRQAPGQGLEWMGWINPNNNATNYAQNFQGRVTLTRDTSISTAYMELSRLRSDDTAVYYCARDGTSSFDFWGQGTLVTVSS
VL: DIQMTQSPSSVSASVGDRVTITCRASQGISRWLAWYQQKPGKAPKVLIYAASTLQSGVPSRFSGSGSGTDFTLTISSLQPEDFATYYCQQANSFPFTFGPGTKVDIK
notes: hybridoma mAb
B14: 53F2 (antibody, V domains shown)
VH: QVQLVQSGAEVKKPGASVKVSCKASGYTFTGYYLHWVRQAPGQGLEWMGWINPNRNGTNYAQNFQGRVTMTRDTSISTAYMELSRLKSDDTAVYYCARDGTSSFDYWGQGTLVTVSS
VL: DIQMTQSPSSVSASVGDRVTITCRASQGISKWLAWYQQKPGKAPNLLLYAASSLQSGVPSKFSGSGSGTDFTLTISSLQPEDFATYYCQQANSFPFTFGPGTKVDVK
notes: hybridoma mAb
B15: 22G5 (antibody, V domains shown)
VH: EVQLLESGGGLVQPGGSLRLSCAASGFTFSSYAMNWVRQAPGMGLEWVSVISRSGGYTYYADSVKGRFTISRDNSKNTLYLQMNSLRAEDTAVYYCASRLAVAGSEAFDIWGQGTLVTVSS
VL: DIQMTQSPSSLSASVGDRVTITCRASQNISSYLNWYQQKQGKAPKLLIYAASSLQNGVPSRFSGRGSGTDFTLTISSLQPEDFATYYCQQSYRTPLFTFGPGTKVDFK
notes: hybridoma mAb

Key:
[1] = target: T1, recombinant, soluble human ASGR-1 (human, UniProt P07306 62-291); experiment: Octet BLI dissociation, pH 5.6 plus calcium
T1 construct: biotinylated in the binning assay; also called soluble huASGR-1; Soluble ASGR-1 (Amgen)
T1 sequence: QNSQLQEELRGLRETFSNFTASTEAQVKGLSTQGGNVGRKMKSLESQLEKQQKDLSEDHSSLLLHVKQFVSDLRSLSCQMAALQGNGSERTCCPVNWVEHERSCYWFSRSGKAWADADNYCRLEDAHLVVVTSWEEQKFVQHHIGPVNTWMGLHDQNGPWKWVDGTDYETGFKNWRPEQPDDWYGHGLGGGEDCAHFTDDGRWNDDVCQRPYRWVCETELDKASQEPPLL
Experimental: (§1) The relative dissociation of ASGR-1 from antibodies was measured using a label-free assay on an OctetHTX instrument (Fortebio). Antibody samples were captured on anti-HuFc kinetic biosensors (ForteBio cat #18-5064) at 5 ug/mL in assay buffer (10 mM Tris, 0.1% Triton, 150 mM NaCl, 1 mg/mL BSA, 1 mM CaCl2, pH7.4) for three minutes. A one minute baseline stabilization step was performed in assay buffer. Soluble ASGR-1 (Amgen) at 6 ug/ml in assay buffer was added and association to the antibodies was monitored for two minutes. Subsequent dissociation of ASGR-1 from the antibodies was performed by incubating the ASGR-1-mAb complexes for 10 minutes under each of the following conditions:
(§2) The binding signal at the end of the 2 minute association phase for each dissociation experiment was set to 100% and used to represent the maximal level of ASGR-1 binding. After 1 minute of dissociation, the percentage of ASGR-1 remaining bound was calculated. The lower the percent remaining at a given time point indicates increased levels of dissociation in response to the test conditions (ie. different pH and/or calcium concentrations). The change in the percentage of ASGR-1 remaining bound in response to each test condition relative to the percent remaining in the control conditions (ie. pH 7.4+calcium) was determined. Cut-offs for an antibody to be categorized as being sensitive to a particular condition were set to >10% (ie. if >10% of the ASGR-1 dissociates from the antibody under a particular test condition compared to control condition, it was deemed sensitive to that condition). The analysis was done using the 1 minute dissociation time point (except for mAb 149A1 which was binned based on the 4 minute dissociation time point). Using this analysis, the ASGR-1-binding, receptor-ligand blocking antibodies were separated into groups according to their dissociation profiles in response to pH and calcium (Table 7.3). Antibodies belonging to each category were observed.

[2] = target: T1, recombinant, soluble human ASGR-1; experiment: Octet BLI dissociation, pH 5.6 minus calcium
Experimental: as §1, §2

[3] = target: T1, recombinant, soluble human ASGR-1; experiment: Octet BLI dissociation, pH 7.4 minus calcium
Experimental: as §1, §2

Binder | % Change Compared to pH 7.4 + Calcium [1] [%] | % Change Compared to pH 7.4 + Calcium [2] [%] | % Change Compared to pH 7.4 + Calcium [3] [%]
B1 | 19 | 33 | 7
B2 | 29 | 49 | 48
B3 | -5 | 2 | 3
B4 | 3 | 13 | 9
B5 | -1 | 2 | 5
B6 | 1 | 13 | 15
B7 | -2 | 4 | 5
B8 | 13 | 29 | 13
B9 | 0 | 9 | 6
B10 | 12 | 29 | 17
B11 | -6 | -1 | 1
B12 | 4 | 15 | 7
B13 | -2 | 8 | 4
B14 | 1 | 13 | 15
B15 | 35 |  | 40
